Measurements: US6783760

Biological target: anti-VCAM-1.tTF coaguligand (anti-VCAM-1 antibody IgG covalently linked via SMPT to truncated tissue factor with an added N-terminal cysteine) (human) (UniProt P13726)
Test: 125I-labeled 10H10 bound to anti-VCAM-1.tTF-treated IL-1α-activated bEnd.3 cells, gamma counting

UniProt P13726, sequence (P13726 other isoform, or with tags, fused parts or gaps): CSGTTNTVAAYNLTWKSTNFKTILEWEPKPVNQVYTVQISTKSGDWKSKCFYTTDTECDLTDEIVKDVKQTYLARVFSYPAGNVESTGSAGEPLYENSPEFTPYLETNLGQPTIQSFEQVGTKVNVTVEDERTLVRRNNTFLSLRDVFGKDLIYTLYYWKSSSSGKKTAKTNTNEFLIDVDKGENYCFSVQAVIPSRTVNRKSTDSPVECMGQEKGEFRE

anti-TF antibody bound to coaguligand-treated cells at saturation: 8.7 fmol
molecules of anti-TF antibody bound per cell at saturation (molecules of anti-TF antibody per cell): 540000
Substance: 10H10, mouse monoclonal antibody against human tissue factor
